Among the data in article PMC2759517 (2009) are IC50 values, retold here.

Where no end group is shown, it is not given here.

One experiment addresses T1, HA-tagged PA of FluB (Influenza B virus).
T1 chain: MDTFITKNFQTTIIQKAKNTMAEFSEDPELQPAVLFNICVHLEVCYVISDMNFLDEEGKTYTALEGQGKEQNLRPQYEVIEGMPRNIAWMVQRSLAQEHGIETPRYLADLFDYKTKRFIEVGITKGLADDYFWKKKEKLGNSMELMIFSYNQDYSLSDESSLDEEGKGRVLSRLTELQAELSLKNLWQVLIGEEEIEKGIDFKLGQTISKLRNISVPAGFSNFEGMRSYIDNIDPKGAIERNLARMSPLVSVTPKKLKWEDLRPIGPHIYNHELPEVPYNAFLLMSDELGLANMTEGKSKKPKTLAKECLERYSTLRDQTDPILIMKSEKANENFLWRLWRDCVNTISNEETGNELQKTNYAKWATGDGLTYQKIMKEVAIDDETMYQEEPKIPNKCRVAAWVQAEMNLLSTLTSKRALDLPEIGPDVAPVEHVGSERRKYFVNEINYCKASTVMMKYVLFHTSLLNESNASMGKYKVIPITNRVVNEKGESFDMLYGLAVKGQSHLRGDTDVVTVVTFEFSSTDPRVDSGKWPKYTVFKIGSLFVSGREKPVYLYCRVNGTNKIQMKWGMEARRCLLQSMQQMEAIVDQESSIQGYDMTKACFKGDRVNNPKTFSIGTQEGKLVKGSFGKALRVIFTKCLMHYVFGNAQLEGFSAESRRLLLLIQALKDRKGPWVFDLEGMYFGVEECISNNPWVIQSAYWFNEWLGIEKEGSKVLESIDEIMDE
Nature of the experiment: ELISA. A general note: ELISA stands for enzyme-linked immunosorbent assay.

Another experiment deals with HA-tagged PA of FluA (Influenza A virus). The experiment is described as follows: ELISA.

On to MNINPYFLFIDVPIQ-NH2 [PB1_(1–15)B competitor peptide], for which the IC50 (commonly the concentration needed to halve the response being measured) was 45 nM in the experiment with HA-tagged PA of FluB and more than 3000 nM with HA-tagged PA of FluA.

Turning to MDVNPTLLFLKVPAQ-NH2 [PB1_(1–15)A competitor peptide], in the experiment with HA-tagged PA of FluB, the half-maximal inhibitory concentration (IC50) is more than 3000 nM.
